This is an account of results in IntAct's records for PubMed 22244764.

The labels stand for the following.
B1: Mortality factor 4-like protein 1 (Homo sapiens), Q9UBU8-2 (parent)
chain: MAPKQDPKPKFQEGERVLCFHGPLLYEAKCVKVAIKDKQVKYFIHYSGWNKNWDEWVPESRVLKYVDTNLQKQRELQKANQEQYAEGKMRGAAPGKKTSGLQQKNVEVKTKKNKQKTPGNGDGGSTSETPQPPRKKRARVDPTVENEETFMNRVEVKVKIPEELKPWLVDDWDLITRQKQLFYLPAKKNVDSILEDYANYKKSRGNTDNKEYAVNEVVAGIKEYFNVMLGTQLLYKFERPQYAEILADHPDAPMSQVYGAPHLLRLFVRIGAMLAYTPLDEKSLALLLNYLHDFLKYLAKNSATLFSASDYEVAPPEYHRKAV
B2: PHD finger protein 12 (Homo sapiens), Q96QT6 (parent)
chain: MWEKMETKTIVYDLDTSGGLMEQIQALLAPPKTDEAEKRSRKPEKEPRRSGRATNHDSCDSCKEGGDLLCCDHCPAAFHLQCCNPPLSEEMLPPGEWMCHRCTVRRKKREQKKELGHVNGLVDKSGKRTTSPSSDTDLLDRSASKTELKAIAHARILERRASRPGTPTSSASTETPTSEQNDVDEDIIDVDEEPVAAEPDYVQPQLRRPFELLIAAAMERNPTQFQLPNELTCTTALPGSSKRRRKEETTGKNVKKTQHELDHNGLVPLPVKVCFTCNRSCRVAPLIQCDYCPLLFHMDCLEPPLTAMPLGRWMCPNHIEHVVLNQKNMTLSNRCQVFDRFQDTVSQHVVKVDFLNRIHKKHPPNRRVLQSVKRRSLKVPDAIKSQYQFPPPLIAPAAIRDGELICNGIPEESQMHLLNSEHLATQAEQQEWLCSVVALQCSILKHLSAKQMPSHWDSEQTEKADIKPVIVTDSSVTTSLQTADKTPTPSHYPLSCPSGISTQNSLSCSPPHQSPALEDIGCSSCAEKSKKTPCGTANGPVNTEVKANGPHLYSSPTDSTDPRRLPGANTPLPGLSHRQGWPRPLTPPAAGGLQNHTVGIIVKTENATGPSSCPQRSLVPVPSLPPSIPSSCASIENTSTLQRKTVQSQIGPPLTDSRPLGSPPNATRVLTPPQAAGDGILATTANQRFSSPAPSSDGKVSPGTLSIGSALTVPSFPANSTAMVDLTNSLRAFMDVNGEIEINMLDEKLIKFLALQRIHQLFPSRVQPSPGSVGTHQLASGGHHIEVQRKEVQARAVFYPLLGLGGAVNMCYRTLYIGTGADMDVCLTNYGHCNYVSGKHACIFYDENTKHYELLNYSEHGTTVDNVLYSCDFSEKTPPTPPSSIVAKVQSVIRRRRHQKQDEEPSEEAAMMSSQAQGPQRRPCNCKASSSSLIGGSGAGWEGTALLHHGSYIKLGCLQFVFSITEFATKQPKGDASLLQDGVLAEKLSLKPHQGPVLRSNSVP
B3: PHD finger protein 12 (Mus musculus), Q5SPL2 (parent)
chain: MWEKMETKTIVYDLDTSGGLMEQIQALLAPPKTDEAEKRSRKPEKESRRSGRATNHDSCDSCKEGGDLLCCDHCPAAFHLQCCNPPLSEEMLPPGEWMCHRCTVRRKKREQKKELGHVNGLVDKSSKRTTSPSSDTDLLDRPASKTELKAIAHARILERRASRPGTPTSNASTETPTSEHNDVDEDIVDVDEEPVAAEPDYVQPQLRRPFELLIAAAMERNPTQFQLPNELTCTTALPGSSKRRRKEETTGKNVKRTQHELDHNGLVPLPVKVCFTCNRSCRVAPLIQCDYCPLLFHMDCLEPPLTAMPLGRWMCPNHIEHVVLNQKNLTLSNRCQVFDRFQDTISQHVVKVDFLNRIHKKHPPNRRVLQSVKRRSLKVPDAIKSQYQFPPPLIAPAAIRDGELICSGVPEESQTHLLNSEHLATQAEQQEWLCSVVALQCSILKHLSAKQMPSPWDSEQTEKADIKPVIVTDSSITTSLQTADKAPLPSHYPLSCPSAVSTQNSLGCSPPHQPPTLEDISCSSCVEKSKKAPCGTANGPVNTEIKANGPHLYSSPTDSTDPRRLPGANTPLPGLTHRQGWPRPLTPPSAGGLQNHVGIIVKTENATGPSSCPQRSLVPVPSLPPSIPSSCASIENTSTLHRKTVQSQIGPSSTESRPLGSPPNATRVLTPPQAAGDSILATGANQRFCSPAPSSDGKVSPGTLSIGSALTVPSFPANSTAMVDLTNSLRAFMDVNGEIEINMLDEKLIKFLALQRVHQLFPSRVQASPGNVGTHPLASGGHHPEVQRKEVQARAVFCPLLGLGGAVNMCYRTLYIGTGADMDVCLTNYGHCNYVSGKHACIFYDENTKHYELLNYSEHGTTVDNVLYSCDFSEKTPPTPPSSIVAKVQSVIRRRRHQKQDEEPSEEAAMMSSQAQGPQRRPCNCKASSSSLIGGSGAGWEGTALLHHGSYIKLGCLQFVFSITEFATKQPKGDASLLQDGVLAEKLSLKPHQGPVLRSNSVP

One assay covers variants of B1. As to conditions: with phf12_mouse Phf12, Q5SPL2.
Take L168A: the “effect of a mutation on the interaction” value is reported as “decreasing interaction”.
Still for that read-out and setting: for V227A the value was “decreasing interaction”; for L287A, “decreasing interaction”.

The next assay covers variants of B1. As to conditions: with phf12_human PHF12, Q96QT6.
For W172A, the “effect of a mutation on the interaction” value was “decreasing interaction”.
As for V268A, the “effect of a mutation on the interaction” value is reported as “decreasing interaction”.
On the same count and under the same terms, the value for V227A was “decreasing interaction”.
For Y235A, the “effect of a mutation on the interaction” value is reported as “disrupting interaction”.
On the same count and under the same terms, for M228A the value was “decreasing interaction”.
Regarding L287A, the “effect of a mutation on the interaction” value was “decreasing interaction”.

In a further assay the parent is B2. The note with it: with MORF4L1, Q9UBU8-2.
As for F225A, the “effect of a mutation on the interaction” value is listed as “decreasing interaction”.
The same measure, in the same setting: the value for F210A was “decreasing interaction”; that for N221E was “decreasing interaction”; that for L227A was “decreasing interaction”.
Same read-out and setting: for P228A the value was “decreasing interaction”; for L213A, “decreasing interaction”.

In another assay the parent is B3. The note with it: with MORF4L1, Q9UBU8-2.
As to F225A, the “effect of a mutation on the interaction” value is recorded as “disrupting interaction strength”.
Still for that read-out and setting: for F210A the value was “disrupting interaction”; for L227A, “disrupting interaction”; for P228A, “decreasing interaction”.
Still for that read-out and setting: the value for L213A was “disrupting interaction”.
